T1: CCR7 on CHO-K1 cells (human, UniProt P32248 25-378)
T1 construct: chemokine receptor CCR7; source: CHO-K1, stably expressing, alone or co-expressed with ChemR23 (clone 26); membrane preparations or cells
T1 sequence (looked up): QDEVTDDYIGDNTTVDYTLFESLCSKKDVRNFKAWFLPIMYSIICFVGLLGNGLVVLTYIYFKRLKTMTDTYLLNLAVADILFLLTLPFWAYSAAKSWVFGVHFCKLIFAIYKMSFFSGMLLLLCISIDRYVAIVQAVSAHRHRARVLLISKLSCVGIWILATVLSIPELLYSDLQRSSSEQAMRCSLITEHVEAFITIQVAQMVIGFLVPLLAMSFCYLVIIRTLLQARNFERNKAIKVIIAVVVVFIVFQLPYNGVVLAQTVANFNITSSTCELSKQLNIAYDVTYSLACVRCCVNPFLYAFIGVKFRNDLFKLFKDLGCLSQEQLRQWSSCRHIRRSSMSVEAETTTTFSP

T2: CCR7-hRLuc / CCR7-EYFP (human, UniProt P32248 25-378)
T2 construct: chemokine receptor CCR7; cDNA in pcDNA3.1, fusion at its 3' end; Two constructs, each with ONE of the two fusions: CCR7-hRLuc (donor) and CCR7-EYFP (acceptor); source: HEK-293T, transfected (calcium phosphate), in living cells; not shown: hRLuc (humanized Renilla luciferase), C-terminal, kept; EYFP, C-terminal, kept
T2 sequence (looked up): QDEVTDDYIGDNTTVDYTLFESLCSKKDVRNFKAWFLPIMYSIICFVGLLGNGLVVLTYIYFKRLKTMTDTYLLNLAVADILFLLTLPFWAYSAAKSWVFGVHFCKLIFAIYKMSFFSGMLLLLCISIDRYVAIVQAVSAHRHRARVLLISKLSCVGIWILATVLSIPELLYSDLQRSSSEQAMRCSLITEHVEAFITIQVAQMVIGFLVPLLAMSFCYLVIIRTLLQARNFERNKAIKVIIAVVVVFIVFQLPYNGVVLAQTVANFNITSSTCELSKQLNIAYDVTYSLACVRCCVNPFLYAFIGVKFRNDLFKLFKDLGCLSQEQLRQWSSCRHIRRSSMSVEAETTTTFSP


Assays:
CCR7 on CHO-K1 cells [1] = target: T1, CCR7 on CHO-K1 cells; experiment: radioligand binding; competition on CHO-K1 cells expressing CCR7 only (methods: membrane preparations); tracer 0.1 nM 125I-CCL19; 50 mM Hepes pH 7.4, 1 mM CaCl2, 5 mM MgCl2, 0.5% BSA; one hour; filtration; conditions: one partner purified
CCR7 on CHO-K1 cells [2] = target: T1, CCR7 on CHO-K1 cells; experiment: cell-based or functional assay
CCR7 on CHO-K1 cells [3] = target: T1, CCR7 on CHO-K1 cells; experiment: radioligand binding; competition on CHO-K1 cells co-expressing ChemR23 and CCR7; tracer 0.1 nM 125I-CCL19; competitors CCL19 (homologous) or chemerin (heterologous, cross-competition); same buffer, one hour, filtration; conditions: one partner purified
CCR7 on CHO-K1 cells [4] = target: T1, CCR7 on CHO-K1 cells; experiment: radioligand binding; competition on CHO-K1 cells co-expressing ChemR23 and CCR7; tracer 0.1 nM 125I-[145-157]-chemerin; competitors chemerin (homologous) or CCL19 (heterologous, cross-competition); same buffer, one hour, filtration; conditions: one partner purified
CCR7-hRLuc / CCR7-EYFP = target: T2, CCR7-hRLuc / CCR7-EYFP; experiment: FRET or BRET; BRET titration in HEK293T cells: constant amount of the hRLuc donor construct, increasing amounts of the EYFP acceptor construct; signal recorded 5 minutes after coelenterazine H; conditions: partners not purified
CXCR4-hRLuc / CXCR4-EYFP = target: T3, CXCR4-hRLuc / CXCR4-EYFP (human, UniProt P61073 1-352); experiment: as above; conditions: partners not purified
T3 construct: chemokine receptor CXCR4; cDNA in pcDNA3.1, fusion at its 3' end; Two constructs, each with ONE of the two fusions: CXCR4-hRLuc (donor) and CXCR4-EYFP (acceptor); source: HEK-293T, transfected (calcium phosphate), in living cells; not shown: hRLuc (humanized Renilla luciferase), C-terminal, kept; EYFP, C-terminal, kept
T3 sequence (P61073 whole entry, the tested form may be a part): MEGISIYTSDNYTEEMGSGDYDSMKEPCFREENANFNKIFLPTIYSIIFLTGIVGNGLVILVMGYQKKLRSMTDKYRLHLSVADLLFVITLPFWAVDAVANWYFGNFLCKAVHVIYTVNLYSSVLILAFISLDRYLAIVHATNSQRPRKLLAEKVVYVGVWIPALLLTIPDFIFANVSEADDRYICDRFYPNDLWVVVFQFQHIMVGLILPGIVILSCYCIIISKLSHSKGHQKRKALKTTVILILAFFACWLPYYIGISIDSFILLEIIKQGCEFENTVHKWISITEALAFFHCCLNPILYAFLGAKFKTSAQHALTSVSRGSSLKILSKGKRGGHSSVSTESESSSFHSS

IC50 (CCR7 on CHO-K1 cells [1]) | EC50 of calcium mobilization (aequorin assay), CHO-K1 cells expressing CCR7 only (CCR7 on CHO-K1 cells [2]) | IC50 (CCR7 on CHO-K1 cells [3]) | IC50 (CCR7 on CHO-K1 cells [4]) | BRET50, fold against the CCR7 homomer (CCR7-hRLuc / CCR7-EYFP) | BRET50, fold against the CXCR4 homomer (CXCR4-hRLuc / CXCR4-EYFP) | Binder
2.42 nM | 7.66 nM | 0.27 nM | 6.85 nM | – | – | CCL19 (unlabelled) (ligand, UniProt Q99731 22-98, looked up, chemokine CCL19, the CCR7-specific ligand) GTNDAEDCCLSVTQKPIPGYIVRNFHYLLIKDGCRVPAVVFTTLRGRQLCAPPDQPWVERIIQRLQRTSAKMKRRSS
– | – | – | – | 2 fold | 2 fold | ChemR23-hRLuc / ChemR23-EYFP (receptor, human, UniProt Q99788 1-373, looked up, ChemR23, the receptor of chemerin; cDNA in pcDNA3.1, fusion at its 3' end; Two constructs, each with ONE of the two fusions: ChemR23-hRLuc (BRET donor) and ChemR23-EYFP (BRET acceptor); source: HEK-293T, transfected (calcium phosphate), in living cells; not shown: hRLuc (humanized Renilla luciferase), C-terminal, kept; EYFP, C-terminal, kept) MRMEDEDYNTSISYGDEYPDYLDSIVVLEDLSPLEARVTRIFLVVVYSIVCFLGILGNGLVIIIATFKMKKTVNMVWFLNLAVADFLFNVFLPIHITYAAMDYHWVFGTAMCKISNFLLIHNMFTSVFLLTIISSDRCISVLLPVWSQNHRSVRLAYMACMVIWVLAFFLSSPSLVFRDTANLHGKISCFNNFSLSTPGSSSWPTHSQMDPVGYSRHMVVTVTRFLCGFLVPVLIITACYLTIVCKLQRNRLAKTKKPFKIIVTIIITFFLCWCPYHTLNLLELHHTAMPGSVFSLGLPLATALAIANSCMNPILYVFMGQDFKKFKVALFSRLVNALSEDTGHSSYPSHRSFTKMSSMNERTSMNERETGML
